Experimental data from publication PMC4328881.

Tests used:
[1] = molecular target: full-length 26 kDa (227 amino acids) OSM (human); test: SPR
[2] = molecular target: 22 kDa (196 amino acids) OSM (human) (UniProt P13725); test: SPR
Sequence of 22 kDa (196 amino acids) OSM (human) (P13725 26-221): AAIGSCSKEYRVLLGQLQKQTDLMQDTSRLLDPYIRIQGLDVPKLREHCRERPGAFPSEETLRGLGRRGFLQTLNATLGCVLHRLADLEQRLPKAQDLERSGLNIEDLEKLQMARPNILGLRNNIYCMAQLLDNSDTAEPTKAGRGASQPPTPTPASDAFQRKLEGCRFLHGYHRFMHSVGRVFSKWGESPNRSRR

Sequence of fibronectin, P02751 32-2477 (natural protein; ; other documents disagree on this pair) (P02751 32-2477): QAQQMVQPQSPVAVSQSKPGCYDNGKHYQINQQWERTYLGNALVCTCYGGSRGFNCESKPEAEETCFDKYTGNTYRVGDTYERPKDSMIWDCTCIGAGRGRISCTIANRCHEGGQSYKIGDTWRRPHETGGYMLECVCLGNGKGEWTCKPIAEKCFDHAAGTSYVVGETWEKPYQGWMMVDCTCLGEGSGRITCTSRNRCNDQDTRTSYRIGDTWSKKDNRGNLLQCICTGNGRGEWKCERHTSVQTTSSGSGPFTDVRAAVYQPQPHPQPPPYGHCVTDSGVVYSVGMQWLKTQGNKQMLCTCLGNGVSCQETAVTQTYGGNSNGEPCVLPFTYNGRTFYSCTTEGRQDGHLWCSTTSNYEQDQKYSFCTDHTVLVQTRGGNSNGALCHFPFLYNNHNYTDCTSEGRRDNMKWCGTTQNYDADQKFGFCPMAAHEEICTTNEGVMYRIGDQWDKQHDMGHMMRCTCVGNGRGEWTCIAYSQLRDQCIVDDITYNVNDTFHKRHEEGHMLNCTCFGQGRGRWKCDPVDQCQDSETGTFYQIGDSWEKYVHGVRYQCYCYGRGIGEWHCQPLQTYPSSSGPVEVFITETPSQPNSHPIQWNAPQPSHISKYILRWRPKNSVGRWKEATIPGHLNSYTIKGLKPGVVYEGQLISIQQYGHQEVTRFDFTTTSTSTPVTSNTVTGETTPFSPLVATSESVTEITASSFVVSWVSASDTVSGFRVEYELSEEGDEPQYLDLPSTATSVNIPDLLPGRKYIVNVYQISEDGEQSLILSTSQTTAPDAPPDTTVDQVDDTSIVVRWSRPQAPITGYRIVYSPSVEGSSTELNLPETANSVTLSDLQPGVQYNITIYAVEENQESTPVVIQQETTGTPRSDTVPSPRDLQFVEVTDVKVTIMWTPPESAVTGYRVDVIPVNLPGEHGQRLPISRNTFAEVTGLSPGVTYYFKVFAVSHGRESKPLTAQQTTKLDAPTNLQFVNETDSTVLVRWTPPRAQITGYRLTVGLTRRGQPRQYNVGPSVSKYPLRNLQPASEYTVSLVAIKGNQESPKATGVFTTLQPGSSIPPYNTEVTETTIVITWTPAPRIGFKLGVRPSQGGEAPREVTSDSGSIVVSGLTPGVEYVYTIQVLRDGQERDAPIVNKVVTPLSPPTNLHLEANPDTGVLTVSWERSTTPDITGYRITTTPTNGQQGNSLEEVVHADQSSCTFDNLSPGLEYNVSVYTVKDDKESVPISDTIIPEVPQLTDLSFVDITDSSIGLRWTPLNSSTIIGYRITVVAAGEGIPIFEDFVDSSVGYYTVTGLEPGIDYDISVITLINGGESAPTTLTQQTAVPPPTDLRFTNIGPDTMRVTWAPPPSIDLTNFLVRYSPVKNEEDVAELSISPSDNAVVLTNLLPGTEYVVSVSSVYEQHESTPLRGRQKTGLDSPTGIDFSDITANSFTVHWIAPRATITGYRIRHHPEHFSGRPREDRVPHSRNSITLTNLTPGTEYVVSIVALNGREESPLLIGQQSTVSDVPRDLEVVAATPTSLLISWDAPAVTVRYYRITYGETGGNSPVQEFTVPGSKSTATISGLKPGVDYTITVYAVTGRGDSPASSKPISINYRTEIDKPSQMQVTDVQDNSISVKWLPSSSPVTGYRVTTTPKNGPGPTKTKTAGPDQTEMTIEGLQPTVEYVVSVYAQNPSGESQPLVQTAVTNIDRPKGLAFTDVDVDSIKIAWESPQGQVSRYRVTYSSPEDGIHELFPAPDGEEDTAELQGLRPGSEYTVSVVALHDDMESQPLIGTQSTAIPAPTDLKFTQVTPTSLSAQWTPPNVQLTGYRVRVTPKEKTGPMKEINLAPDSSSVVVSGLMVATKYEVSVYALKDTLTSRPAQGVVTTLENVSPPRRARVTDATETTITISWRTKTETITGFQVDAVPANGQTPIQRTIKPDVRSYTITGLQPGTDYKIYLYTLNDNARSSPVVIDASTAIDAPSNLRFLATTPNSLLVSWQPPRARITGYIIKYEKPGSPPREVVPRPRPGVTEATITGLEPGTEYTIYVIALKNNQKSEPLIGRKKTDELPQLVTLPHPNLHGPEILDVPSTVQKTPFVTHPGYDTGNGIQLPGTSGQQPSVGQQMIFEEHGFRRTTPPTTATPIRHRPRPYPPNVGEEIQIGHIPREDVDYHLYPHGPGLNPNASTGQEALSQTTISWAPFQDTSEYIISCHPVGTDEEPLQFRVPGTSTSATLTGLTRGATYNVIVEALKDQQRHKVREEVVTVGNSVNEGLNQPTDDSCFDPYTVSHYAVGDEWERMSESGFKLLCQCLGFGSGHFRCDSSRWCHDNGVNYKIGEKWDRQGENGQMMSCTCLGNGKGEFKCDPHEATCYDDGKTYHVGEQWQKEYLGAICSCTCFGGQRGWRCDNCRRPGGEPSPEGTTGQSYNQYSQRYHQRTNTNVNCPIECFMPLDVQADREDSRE

Row | Kd [1] [µM] | Kd [2] [µM] | Substance
1 | 1170 | – | fibronectin, P02751 32-2477 (natural protein; ; other documents disagree on this pair)
2 | 0.844 | 0.936 | laminin (complex)
